Consider 36 sequences from the supplement of paper PMC10567573.

A short description of this data set: protein stability index of a GFP-peptide fusion (GPS, HEK-293T) (PSI 1-6); higher = more stable. As to conditions: c terminus: a fixed tail appended.

± gives the standard deviation.
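Also: 24-mer peptide tiles fused after GFP, lentivirally expressed, FACS-sorted into six equal bins by GFP/DsRed ratio, decoded by Illumina sequencing, PSI is the read-weighted mean bin number.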

Take LGLSLTNGLALGPDLNILEDSAES [PSD2]: the protein stability index reads like this: (treatment: DMSO) 4.56 ± 0.15; (treatment: MLN4924 1 uM, 8 h) 4.78 ± 0.31.
On the same counts, the results for LGSSRTPETVRMVLSNMEKLFCIP [IMPA1] are 2.08 ± 0.39 and 2.2 ± 0.26.
For the sequence LHILARDVHNRIVIRGLNTIPLFV [CTNNB1], the protein stability index reads like this: (treatment: DMSO) 2.73 ± 0.48; (treatment: MLN4924 1 uM, 8 h) 2.68 ± 0.56.
On the same counts, the results for LHSISDSVLFLQEFGALMSNYSLP [TRIM29] are 2.41 ± 0.43 and 2.12 ± 0.26.
On the same counts, the results for LIKDAIVSTQPAMMVNLRACSAPG [C2CD2L] are 2.82 ± 0.26 and 2.54 ± 0.31.
In the same order, the values of LIKPSRVVAILAAACLLQLDGLIQ [GMCL1] are 3.11 ± 0.32 and 2.89 ± 0.27.
Turning to LILESQNWRYATGGWETVFRPVSE [FUT8], the protein stability index runs as follows: (treatment: DMSO) 2.42 ± 0.22; (treatment: MLN4924 1 uM, 8 h) 2.29 ± 0.11.
For the sequence LIRLFWTWHDERFLYMLMEYVPGG [PRKX], the protein stability index runs as follows: (treatment: DMSO) 2.59 ± 0.47; (treatment: MLN4924 1 uM, 8 h) 2.48 ± 0.35.
In the case of LITFDNKAHSGRIPISLETQAHIQ [MCOLN1], the protein stability index was determined as 2.91 ± 0.26 (treatment: DMSO) and 3.04 ± 0.23 (treatment: MLN4924 1 uM, 8 h).
On the same counts, the results for LKFDAYFQEDVPMSTEEQYRIRQV [EFHC1] are 3.44 ± 0.14 and 3.46 ± 0.28.
As for LKIDFGDSARADDARQLFVLAGAA [GNAI1], the protein stability index reads like this: (treatment: DMSO) 2.59 ± 0.37; (treatment: MLN4924 1 uM, 8 h) 2.68 ± 0.27.
In the same order, the values of LKPTASKLGAPLSGLQGLPECTRC [PDLIM4] are 3.24 ± 0.31 and 3.44 ± 0.12.
With LKRLYRAPIDWIEEYTTGMADCIL [ALG2], the protein stability index was 2.26 ± 0.68 (treatment: DMSO) and 2.28 ± 0.69 (treatment: MLN4924 1 uM, 8 h).
In the case of LKRSANQMGVSAKRRPKAQPTTLV [MED27], the protein stability index runs as follows: (treatment: DMSO) 3.48 ± 0.17; (treatment: MLN4924 1 uM, 8 h) 3.72 ± 0.27.
As to LKTQMKMSLKCLAARAVRANDINY [FEM1B], the protein stability index runs as follows: (treatment: DMSO) 3.02 ± 0.44; (treatment: MLN4924 1 uM, 8 h) 2.67 ± 0.16.
With LKYFSDFRPYFTIHDSEFKEYTTR [DENND6A], the protein stability index was 2.19 ± 0.32 (treatment: DMSO) and 2.3 ± 0.2 (treatment: MLN4924 1 uM, 8 h).
Consider LKYMEVTLRPTDSQSHCYRTCFSP [PCDHGC5], for which the protein stability index (treatment: DMSO) was determined as 2.31 ± 0.2 and the protein stability index (treatment: MLN4924 1 uM, 8 h) was found to be 2.25 ± 0.34.
On the same counts, the results for LLATAEQEQLSLSQRQAKELKLEQ [LRRC45] are 4.88 ± 0.21 and 5.02 ± 0.15.
In the case of LLATFPRRALAPPSAGFRCCAAPG [ANKRD9], the protein stability index by setting is: (treatment: DMSO) 2.47 ± 0.16; (treatment: MLN4924 1 uM, 8 h) 2.45 ± 0.14.
On the same counts, the results for LLHLAVNSNTPVDDFHTNDVCSFP [FEM1B] are 2.85 ± 0.25 and 2.74 ± 0.12.
As to LLKAGAEVNVLNDMRDTPLHRAAF [OSBPL1A], the protein stability index came to 3.12 ± 0.24 (treatment: DMSO) and 3 ± 0.17 (treatment: MLN4924 1 uM, 8 h).
Take LLPNQSHGNQSAGEDQAFGDWLLT [SLC22A15]: the protein stability index (treatment: DMSO) stood at 4.14 ± 0.35 and the protein stability index (treatment: MLN4924 1 uM, 8 h) stood at 4.24 ± 0.18.
In the same order, the values of LLRDHIPRGKEELESLGGGKTPPG [MOG] are 4.89 ± 0.18 and 4.81 ± 0.37.
On the same counts, the results for LLRREPAERLTATGILLHPWLRQD [TRIB3] are 2.47 ± 0.27 and 2.45 ± 0.25.
On the same counts, the results for LNHVKSMWYPEIKHFCPRTPVILV [RHOBTB1] are 3.16 ± 0.47 and 3.1 ± 0.82.
LNIKVKLEAEIATYRRLLEDGEDF [KRT18] came in with a protein stability index (treatment: DMSO) of 2.66 ± 0.2 and a protein stability index (treatment: MLN4924 1 uM, 8 h) of 2.5 ± 0.34.
In the same order, the values of LNIVPRTKVVYLASETFNYSAIDR [PI4K2A] are 2.28 ± 0.18 and 2.07 ± 0.2.
Consider LNLAMVYRYCCKLNKKLKSYSLSR [CDC14A], for which the protein stability index by setting is: (treatment: DMSO) 3.32 ± 0.69; (treatment: MLN4924 1 uM, 8 h) 3.04 ± 0.49.
As to LNRDEEIIKQLQKGVQQKRPSEAQ [DENND6A], the protein stability index (treatment: DMSO) stood at 4.94 ± 0.097 and the protein stability index (treatment: MLN4924 1 uM, 8 h) amounted to 4.83 ± 0.31.
With LNVRSEEQVFNAVMAWVKYSIQER [KLHL20], the protein stability index came to 2.54 ± 0.77 (treatment: DMSO) and 2.42 ± 0.23 (treatment: MLN4924 1 uM, 8 h).
For LPDCCHGSELRDFPGRPMGHLSKD [DLC1], the protein stability index turned out to be 4.44 ± 0.29 (treatment: DMSO) and 4.32 ± 0.27 (treatment: MLN4924 1 uM, 8 h).
For LPGSDVSGRLMGSPPVPGPSAALT [FBXO28], the protein stability index reads like this: (treatment: DMSO) 4.42 ± 0.16; (treatment: MLN4924 1 uM, 8 h) 4.6 ± 0.33.
In the case of LQLQKGSDTEAQCEVMQEIVDQVL [INTS3], the protein stability index is, setting by setting: (treatment: DMSO) 3.63 ± 0.35; (treatment: MLN4924 1 uM, 8 h) 3.93 ± 0.19.
On the same counts, the results for LQNEAQKRESFLKYKCLLQQLYYT [IQUB] are 2.16 ± 0.43 and 2.24 ± 0.21.
Take LQTMLRQSAFLHLPLPEQIHKASA [INTS4]: the protein stability index was found to be 2.56 ± 0.22 (treatment: DMSO) and 2.44 ± 0.15 (treatment: MLN4924 1 uM, 8 h).
Regarding LRAEEIETRVTSGSMEALNLKQLR [PPFIA4], the protein stability index worked out at 4.32 ± 0.28 (treatment: DMSO) and 4.58 ± 0.57 (treatment: MLN4924 1 uM, 8 h).
